The results in this text go back to publication PMC4428445 (Frontiers in Molecular Biosciences, 2015).

The target of the assay is T1, Recombinant wild-type human ubiquitin (human, UniProt P0CG48 1-76).
T1 construct: ubiquitin, human, wild type; C-terminal residue G76; 15N labelled in some NMR experiments; In the rows of assays a1, a4 and a5 it is covalently linked by G76 to K117 of m1 (the conjugate is m3); also called free ubiquitin; mono-ubiquitin; source: recombinant, purified by anion exchange followed by gel filtration
The assay is described as follows: NMR titration; 15N ubiquitin (50 μM) titrated with unlabeled JosK117-onlyW87R or its mono-ubiquitinated form to a maximum of 2 equivalents; 20 mM Na phosphate pH 6.5, 2 mM DTT, 25°C. Particulars: both partners purified.

B1: W87R mutant of JosK117-only (domain or fragment, UniProt P54252 1-182, looked up)
chain: MESIFHERQEGSLCAQHCLNNLLQGEYFSPVELSSIAHQLDEEERMRMAEGGVTSEDYRTFLQQPSGNMDDSGFFSIQVISNALRVRGLELILFNSPEYQRLRIDPINERSFICNYKEHWFTVRRLGRQWFNLNSLLTGPELISDTYLALFLAQLQQEGYSIFVVRGDLPDCEADQLLQMIR
notes: ataxin-3, N-terminal Josephin domain, amino acids 1-182; K8, 85, 125, 128 and 166 mutated to arginine, and W87R (site 2); also called JosK117-onlyW87R; JosK117-only W87R; source: recombinant; mutant prepared with QuickChange Site-Directed Mutagenesis kit
Regarding B1, the binding result is “binds”.
